In publication PMC12843318, “Zinc-Finger 5 Is an Activation Domain in the Saccharomyces cerevisiae Stress-Responsive Transcription Factor Fzf1” one finds Kd data, which are given here for one molecule.

One data set concerns the target T1, Fzf1-N117 (Saccharomyces cerevisiae, UniProt P32805 1-117).
T1 sequence: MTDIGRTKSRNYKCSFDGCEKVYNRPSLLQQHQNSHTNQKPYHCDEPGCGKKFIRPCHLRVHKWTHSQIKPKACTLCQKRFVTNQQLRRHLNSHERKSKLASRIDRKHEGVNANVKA
Nature of the data set: EMSA; poly dI-dC, BSA; EMSA: 0.1 pmol dsDNA probe, 2 ng BSA, 0.5 ug poly dI-dC (added after incubation), EMSA binding buffer (composition, salt and pH not given), 20 min on ice, 6% native PAGE; protein 0-150 nM. Particulars: protein: recombinant; tags: N-terminal GST removed by PreScission protease; blunt. For orientation: A gel shift assay detects complexes by their altered migration in electrophoresis.

The target in the next data set is T2, Fzf1 (Saccharomyces cerevisiae, UniProt P32805 1-299).
T2 sequence: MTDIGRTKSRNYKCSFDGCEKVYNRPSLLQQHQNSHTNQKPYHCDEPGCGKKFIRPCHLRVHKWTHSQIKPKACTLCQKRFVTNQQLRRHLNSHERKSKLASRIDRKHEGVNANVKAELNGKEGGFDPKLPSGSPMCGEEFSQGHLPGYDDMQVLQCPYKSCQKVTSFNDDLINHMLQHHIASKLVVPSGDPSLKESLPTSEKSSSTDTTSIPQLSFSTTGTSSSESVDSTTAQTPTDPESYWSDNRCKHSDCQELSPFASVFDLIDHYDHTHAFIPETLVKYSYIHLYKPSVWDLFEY
The description is as above. The following applies: protein: recombinant; tags: GST fusion from pGEX-6p-1 (pGEX-FZF1); tag removal by PreScission described only for N117; blunt.

B1: SSU1-CS2 (dsDNA)
DNA 1: GAAAAAAAAATGATAGTTTGCAGGAAG
DNA 2: CTTCCTGCAAACTATCATTTTTTTTTC
On to B1, for which the results for the Kd with Fzf1-N117 and with Fzf1 were around 30 nM and around 35 nM, respectively.
